Measurements as given in article PMC6699858, “Ternary structure of the outer membrane transporter FoxA with resolved signalling domain provides insights into TonB-mediated siderophore uptake” (eLife, 2019).

Legend:
FoxA = biological target: T1, FoxA (Pseudomonas aeruginosa, UniProt Q9I116); experiment: tryptophan fluorescence quenching (Kd […]); also ITC in nanodiscs (Kd […]) and co-crystal structures without and with TonBCt; format: binding
T1 construct: Full-length FoxA, purified in nonyl glucopyranoside

[1] = biological target: T2, FoxA from Pseudomonas aeruginosa strain PAO1, full-length (Pseudomonas aeruginosa strain PAO1, UniProt Q9I116 1-820, Signal peptide taken as removed in the outer membrane; text gives the mature start as 44 or 45, and 45 is used. His6 tag removed by TEV, residual TEV-site residues at the C-terminus omitted. Ferrioxam); experiment: ITC; 150 μM TonBCt in the syringe, 15 μM apo FoxA in MSP1D1/POPC nanodiscs in the cell; 20 mM HEPES, 150 mM NaCl, pH 7.5; 26 °C; single-site model; triplicates, SD; conditions: both partners purified
[2] = biological target: T2, FoxA from Pseudomonas aeruginosa strain …; experiment: ITC; 150 μM TonBCt in the syringe, 15 μM ferrioxamine B-bound FoxA in MSP1D1/POPC nanodiscs in the cell (dialysed against 1 mM FoaB); 20 mM HEPES, 150 mM NaCl, pH 7.5; 26 °C; single-site model; triplicates, SD; conditions: both partners purified

Molecule | Kd (FoxA) | Kd [1] | dH [1] | Kd [2] | dH [2]
CC(=O)N([O-])CCCCCNC(=O)CCC(=O)N([O-])CCCCCNC(=O)CCC(=O)N([O-])CCCCCN.[Fe+3] [FoaB, ferrioxamine B] | 100 ± 10 nM | – | – | – | –
TonBCt, C-terminal domain of TonB1 from Pseudomonas aeruginosa strain PAO1 (residues 251-340) (domain or fragment, UniProt Q51368 251-340, looked up, TonB1, Pseudomonas aeruginosa PAO1, residues 251-340 (C-terminal domain); also called TonB fragment; C-terminal TonB domain; source: E. coli BL21 Gold, purified (HisTrap Ni-NTA, TEV, reverse purification)) DSDIKPLRMDPPVYPRMAQARGIEGRVKVLFTITSDGRIDDIQVLESVPSRMFDREVRQAMAKWRFEPRVSGGKIVARQATKMFFFKIEK | – | 111 nM | -10.1 kcal/mol | 6.6 nM | -18.1 kcal/mol
